Source: patent US20220340673A1 (HARBOUR BIOMED SUZHOU, published 2022)

Assays:
[1] = target: T1, human BCMA on cells (HEK293T/huBCMA; NCI-H929) (human, UniProt Q02223 1-184); assay: FACS on NCI-H929 cell line [B]
T1 construct: whole, on cells; also called human BCMA molecules on NCI-H929 cell line
T1 sequence (looked up): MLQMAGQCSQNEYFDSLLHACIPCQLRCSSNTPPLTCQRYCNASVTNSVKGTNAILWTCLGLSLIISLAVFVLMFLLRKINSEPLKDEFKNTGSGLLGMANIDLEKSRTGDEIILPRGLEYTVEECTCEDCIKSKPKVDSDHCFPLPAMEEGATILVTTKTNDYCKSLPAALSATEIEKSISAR
Description: To study the binding activity of the BCMA arm of the BCMA×CD3 bispecific antibody to human BCMA, NCI-H929 cell line with highly expressed BCMA was used for binding experiments with human BCMA at cellular level. Briefly, NCI-H929 cell suspensions were collected. The cell density was adjusted to 1×10⁶ cells/mL, and the cells were inoculated in 96 well V-bottom plates at 100 μL cells/well (Corning, Cat#: 3894), followed by the addition of test antibodies at 100 μL/well, which is gradient diluted at 3 folds of the concentration with 2 folds of the final concentration. Cells were incubated at 4° C. for 2 hours in the dark. Afterwards, cells were washed twice with 100 μL/well of pre-cooled PBS, centrifuged at 500 g for 5 min at 4° C., and followed by discarding the supernatant. 100 μL/well of fluorescent secondary antibody (Alexa Fluor 488-conjugated AffiniPure Goat Anti-Human IgG, Fcγ Fragment Specific, Jackson, Cat#:109-545-06, 1:500 dilution) was added and incubated at 4° C. for 1 hour in the dark. Cells were washed twice with 100 μL/well of pre-cooled PBS, centrifuged at 500 g, 4° C. for 5 min, and followed by discarding the supernatant. Finally, the cells were resuspended with 200 μL/well of pre-cooled PBS, and the fluorescence luminescence signal values were read by BD FACS CANTOII.

[2] = target: T2, cynomolgus monkey CD3 on cynomolgus monkey T cells (cynomolgus monkey, UniProt Q95LI5 22-198); assay: FACS on cynomolgus monkey T cells [B]
T2 construct: whole, on cells; CD3 complex on primary T cells
T2 sequence (Q95LI5 22-198): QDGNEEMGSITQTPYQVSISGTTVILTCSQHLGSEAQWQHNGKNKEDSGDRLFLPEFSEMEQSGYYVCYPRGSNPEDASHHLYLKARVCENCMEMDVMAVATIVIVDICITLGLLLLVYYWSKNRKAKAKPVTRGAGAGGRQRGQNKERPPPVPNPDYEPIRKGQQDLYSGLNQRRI
Description: To study the in vitro binding activity of the CD3 arm of the BCMA×CD3 bispecific antibody, human and cynomolgus monkey T cells were used for antibody binding experiments at cellular level. Briefly, the density of human and cynomolgus monkey T cells was adjusted to 1×10⁶ cells/mL, respectively. Cells were inoculated at 100 μL cells/well in a 96 well V-bottom plate (Corning, Cat#: 3894), followed by the addition of test antibodies at 100 μL/well, which is gradient diluted at 3 folds of the concentration with 2 folds of the final concentration. Cells were incubated at 4° C. for 1 hour in the dark. Afterwards, cells were washed twice with 100 μL/well of pre-cooled PBS, centrifuged at 500 g in 4° C. for 5 min, and followed by discarding the supernatant. 100 μL/fluorescent secondary antibody (Alexa Fluor 488-conjugated AffiniPure Goat Anti- Human IgG, Fcγ Fragment Specific, Jackson, Cat#:109-545-06, 1: 500 dilution) was added and incubated for 30 min at 4° C. in the dark. Cells were washed twice with 100 μL/well of pre-cooled PBS, centrifuged at 500 g, 4° C. for 5 min, and followed by discarding the supernatant. Finally, the cells were resuspended with 200 μL/well of pre-cooled PBS, and the fluorescence luminescence signal values were read by BD FACS CANTOII.

[3] = target: T1, human BCMA on cells (HEK293T/huBCMA; …); assay: FACS on HEK293T cell strain overexpressing human BCMA [C]
From the text: To study the in vitro binding activity of the BCMA arm of the BCMA×CD3 bispecific antibody, HEK293T cell strain overexpressing human BCMA (HEK293T/huBCMA) and HEK293T cell strain overexpressing cynomolgus monkey BCMA (HEK293T/cynoBCMA) were used for antibody binding experiments at cellular level. Briefly, HEK293T/huBCMA cells and HEK293T/cynoBCMA cells were digested and resuspended with DMEM complete medium. The cell density of the two was adjusted to 1×10⁶ cells/mL, respectively. Cells were inoculated at 100 μL cells/well in a 96 well V-bottom plate (Corning, Cat#: 3894), followed by the addition of test antibodies at 100 μL/well, which is gradient diluted at 3 folds of the concentration with 2 folds of the final concentration. Cells were incubated at 4° C. for 1 hour in the dark. Afterwards, the cells were washed twice with 100 μL/well of pre-cooled PBS, centrifuged at 500 g for 5 min at 4° C., and followed by discarding the supernatant. 100 μL/well of fluorescent secondary antibody (Alexa Fluor 488-conjugated AffiniPure Goat Anti-Human IgG, Fcγ Fragment Specific, Jackson, Cat#: 109-545-06, 1:500 dilution) was added and incubated for 30 min at 4° C. in the dark. […] Finally, the cells were resuspended with 200 μL/well of pre-cooled PBS, and the fluorescence luminescence signal values were read by BD FACS CANTOII. […]

[4] = target: T3, cynomolgus monkey BCMA on cells (HEK293T/cynoBCMA) (cynomolgus monkey, UniProt A0A2K5UD97 1-183); assay: FACS on HEK293T cell strain overexpressing cynomolgus monkey BCMA [B), (C]
T3 construct: whole, on cells
T3 sequence (A0A2K5UD97 entry or part of it): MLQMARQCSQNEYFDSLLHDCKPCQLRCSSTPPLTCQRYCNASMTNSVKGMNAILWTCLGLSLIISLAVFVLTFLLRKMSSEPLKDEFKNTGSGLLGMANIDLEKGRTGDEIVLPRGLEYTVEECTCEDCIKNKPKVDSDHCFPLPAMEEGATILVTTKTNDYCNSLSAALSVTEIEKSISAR

B1: positive control 2, PR002199 (anti-BCMA (TNB308902) x CD3 (TNB_F2B) bispecific antibody) (bispecific antibody, human IgG1, kappa, L234A L235A)
heavy 1: EVQLVESGGGLVQPGRSLRLSCAASGFTFDDYAMHWVRQAPGKGLEWVSGISWNSGSIGYADSVKGRFTISRDNAKNSLYLQMNSLRAEDTALYYCAKDSRGYGDYRLGGAYWGQGTLVTVSSASTKGPSVFPLAPSSKSTSGGTAALGCLVKDYFPEPVTVSWNSGALTSGVHTFPAVLQSSGLYSLSSVVTVPSSSLGTQTYICNVNHKPSNTKVDKKVEPKSCDKTHTCPPCPAPEAAGGPSVFLFPPKPKDTLMISRTPEVTCVVVDVSHEDPEVKFNWYVDGVEVHNAKTKPREEQYNSTYRVVSVLTVLHQDWLNGKEYKCKVSNKALGAPIEKTISKAKGQPREPQVYTLPPCREEMTKNQVSLWCLVKGFYPSDIAVEWESNGQPENNYKTTPPVLDSDGSFFLYSKLTVDKSRWQQGNVFSCSVMHEALHNHYTQKSLSLSPGK
light: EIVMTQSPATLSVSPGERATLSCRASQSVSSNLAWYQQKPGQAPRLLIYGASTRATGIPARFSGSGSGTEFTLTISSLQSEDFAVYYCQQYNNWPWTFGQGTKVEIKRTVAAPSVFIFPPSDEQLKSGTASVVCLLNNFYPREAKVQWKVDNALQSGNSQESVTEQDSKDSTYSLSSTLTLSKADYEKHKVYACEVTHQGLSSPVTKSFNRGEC
heavy 2: EVQLLESGGGLVQPGGSLRLSCAASGFTVSSYGMSWVRQAPGKGPEWVSGIRGSDGSTYYADSVKGRFTISRDNSKNTLYLQMNSLRAEDTAVYYCAKQGENDGPFDHRGQGTLVTVSSGGGGSEVQLLESGGGLVQPGGSLRLSCAASGFTVSSYGMSWVRQAPGKGPEWVSGIRGSDGSTYYADSVKGRFTISRDNSKNTLYLQMNSLRAEDTAVYYCAKQGENDGPFDHRGQGTLVTVSSASEPKSSDKTHTCPPCPAPEAAGGPSVFLFPPKPKDTLMISRTPEVTCVVVDVSHEDPEVKFNWYVDGVEVHNAKTKPREEQYNSTYRVVSVLTVLHQDWLNGKEYKCKVSNKALGAPIEKTISKAKGQPREPQVCTLPPSREEMTKNQVSLSCAVKGFYPSDIAVEWESNGQPENNYKTTPPVLDSDGSFFLVSKLTVDKSRWQQGNVFSCSVMHEALHNHYTQKSLSLSPGK
notes: Three chains: HC1 (anti-CD3 heavy), LC (anti-CD3 kappa light), HC2 (two tandem anti-BCMA VH, then Fc)
B1 was tested. Which EC50 [1] did it give?
The EC50 was 8.7 nM.

Does B1 bind [2]?
Result: no binding (tested: about 300 nM)

And the EC50 [3]?
The EC50 was 0.602 nM.

Does B1 bind [4]?
Result: no binding (tested: 100 nM)
